Data published in PMC5686351, “Tudor-domain protein PHF20L1 reads lysine methylated retinoblastoma tumour suppressor protein” (Cell Death and Differentiation, 2017).
Where no end group is shown, it is not given here. The star is where a group is joined. Biotin = O=C1N[C@H]2[C@H](CS[C@H]2CCCCC(=O)*)N1

B1: RbK810me1 peptide (biotin-GNIYISPLK[me]SPYKISEG) (peptide)
peptide: Biotin-GNIYISPLK(Me)SPYKISEG
notes: retinoblastoma protein (pRb), stretch around K810, K810 mono-methylated; also called mono-methylated K810 pRb peptide; biotinylated RbK810me1; source: synthetic peptide

Key:
His-PHF20L1 tudor 1 = target: T1, His-PHF20L1 tudor 1 (UniProt A8MW92 11-71); assay: BLI; peptides immobilised; His-PHF20L1 tudor 1 or full-length His-PHF20L1 in seven 2.5-fold dilutions from 200 μM; 250 s association, 250 s dissociation; details: both partners purified
T1 construct: PHD-finger protein 20-like 1 (PHF20L1), tudor 1 domain; the GST construct of tudor 1 is 1-74; also called pET28a-PHF20L1 tudor 1; source: E. coli BL21 (DE3), purified
T1 sequence (looked up): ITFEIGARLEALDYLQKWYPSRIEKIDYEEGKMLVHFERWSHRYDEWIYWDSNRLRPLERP

[1] = target: B1; assay: as above; details: both partners purified

## B1
His-PHF20L1 tudor 1
  Kd: 28 µM

B2: His-PHF20L1 (full length) (natural protein)
chain: MSKKPPNRPGITFEIGARLEALDYLQKWYPSRIEKIDYEEGKMLVHFERWSHRYDEWIYWDSNRLRPLERPALRKEGLKDEEDFFDFKAGEEVLARWTDCRYYPAKIEAINKEGTFTVQFYDGVIRCLKRMHIKAMPEDAKGQFLFQVKSQHPLSWCCPIDPAGSCNQSMGSEDWIALVKAAAAAAAKNKTGSKPRTSANSNKDKDKDERKWFKVPSKKEETSTCIATPDVEKKEDLPTSSETFVGLHVENVPKMVFPQPESTLSNKRKNNQGNSFQAKRARLNKITGLLASKAVGVDGAEKKEDYNETAPMLEQV
[1]
  Kd: 34 µM
